Here are results for one molecule from patent US20150344571A1 (KANGWON NATIONAL UNIVERSITY UNIVERSITY INDUSTRY COOPERATION …, published 2015).

Test [1] has as its target T1, human L1CAM (purified extracellular domain) (human, UniProt P32004 20-1112).
T1 construct: range 1-1112; Expressed in HEK293T from pJK-dhfr2-L1-monomer; The stated range 1-1112 begins at residue 1 of the precursor; no signal peptide limits are stated; also called human L1CAM antigen
The test is described as follows: Octet RED, antibody on AHC sensor, soluble human L1CAM. As for the experimental part: (§1) Affinities of Ab417, Ab417-H6L2 mutant, and Ab417-H6L6 mutant for human and mouse L1CAM were examined using Octet RED (fortebio). […] Each 200 it thereof was added to opaque 96-well plate to prevent light transmission. AHC (anti-human IgG Fc capture) sensor chip was used to analyze binding kinetics of the antibodies to antigens by examining changes in refractive index which occurs upon association and dissociation of antibody and antigen while transferring the sensor chip to PBS solution, antibody, PBS solution, antigen, and PBS solution in this order.
(§2) Despite amino acid substitution, there were no changes in the affinities of these antibodies (Table 4), and there were also no changes in the affinities of these antibodies for mouse L1CAM (Table 5).
(In general: In BLI a coated tip is dipped into the sample, and binding shifts an interference pattern.)

Test [2] has as its target T1, human L1CAM (purified extracellular …). The test is described as follows: competitive ELISA. As for the experimental part: (§3) The affinities of the purified antibodies for human L1CAM were measured by competitive ELISA. Human L1CAM was prepared at a density of 1×10⁻⁶ M and serially diluted to 1×10⁻¹¹ M using a PBS buffer solution. Respective antibodies were prepared by diluting them in PBS buffer solution at particular concentrations according to their binding capacity. The antigens and antibodies thus diluted were reacted with each other at the same volume ratio, and allowed to react at room temperature for 2 hours.
(§4) 96-well plates (MaxiSorp, Nunc) were coated using the purified human L1CAM which were diluted in a buffer solution (15 mM Na₂CO₃, 34.84 mM NaHCO₃, pH 9.6) at a concentration of 100 ng/well, at 4° C. overnight. Next day, the wells were washed with 0.05% PBS-T buffer solution twice. Difco skim milk (BD) was dissolved in 0.05% PBS-T buffer solution at a concentration of 2%, and 200 μl thereof was added to each well, followed by incubation at room temperature for 1 hour. Then, the wells were washed with 0.05% PBS-T buffer solution twice. To the plate, 100 it of the antigen/antibody reactant that were reacted for 2 hours was added and allowed to react at room temperature for 1 hour. Then, the wells were washed with 0.05% PBS-T buffer solution three times to remove non-antigen bound antibodies. Goat anti-human IgG(Fc)-HRP (Pierce, 1/5000) that specifically recognizes the Fc region of human antibody was added as a secondary antibody, and allowed to react at room temperature for 1 hour. Then, the wells were washed with 0.05% PBS-T buffer solution four times to remove the remaining secondary antibodies. […] Then, 50 μl of 2.5 M H₂SO₄ solution was added to each well to terminate the enzymatic reaction. After terminating the reaction, absorbance was measured at 450 nm (VERSAmax microplate reader, Molecular Devices).
Affinity of the purified Ab417 antibody for human L1CAM was measured by competitive ELISA in the same manner as in Example 3-2.

Test [3] shares this target. The experiment in a line: not stated there (summary of the filing's affinity measurements); rounded summary value, no assay named.
The target is the same in test [4]. The test is described as follows: competitive ELISA (soluble human L1CAM against coated human L1CAM). As for the experimental part:
as §3, §4

Test [5] has the same target. The test is described as follows: Octet RED (called SPR in the filing), antibody on AHC sensor, soluble human L1CAM. As for the experimental part: (§5) In addition to the competitive ELISA, SPR (surface […] resonance) was measured using Octet RED (ForteBio, USA) according to the manufacturer's protocol to determine the affinities of Ab417 antibody and Ab4M antibody for human and mouse L1CAM. […] AHC (anti-human IgG Fc capture) sensor chip was used to analyze binding kinetics of the antibodies to antigens by examining changes in refractive index which occurs upon association and dissociation of antibody and antigen while transferring the sensor chip to PBS solution, antibody, PBS solution, antigen, and PBS solution in this order.

Test [6] concerns the target T2, mouse L1CAM (purified extracellular domain with S1 tag) (mouse, UniProt P11627 20-1123).
T2 construct: extracellular domain; also called mouse L1CAM monomer; not shown: S1 tag from the pJEX2T vector
The test is described as follows: not stated there (summary of the filing's affinity measurements).

Test [7] has as its target T2, mouse L1CAM (purified extracellular …). The test is described as follows: competitive ELISA with mouse L1CAM. On the technique in general: ELISA stands for enzyme-linked immunosorbent assay.
For test [8] the target is unchanged. The experiment in a line: Octet RED, antibody on AHC sensor, soluble mouse L1CAM. As for the experimental part:
as §1, §2

For test [9] the target is unchanged. The test is described as follows: Octet RED (called SPR in the filing), antibody on AHC sensor, soluble mouse L1CAM. As for the experimental part: as §5
The target of test [10] is T1, human L1CAM (purified extracellular …). The test is described as follows: Octet RED. As for the experimental part:
as §5

T1 sequence (P32004 20-1112 limits assumed, form in doubt): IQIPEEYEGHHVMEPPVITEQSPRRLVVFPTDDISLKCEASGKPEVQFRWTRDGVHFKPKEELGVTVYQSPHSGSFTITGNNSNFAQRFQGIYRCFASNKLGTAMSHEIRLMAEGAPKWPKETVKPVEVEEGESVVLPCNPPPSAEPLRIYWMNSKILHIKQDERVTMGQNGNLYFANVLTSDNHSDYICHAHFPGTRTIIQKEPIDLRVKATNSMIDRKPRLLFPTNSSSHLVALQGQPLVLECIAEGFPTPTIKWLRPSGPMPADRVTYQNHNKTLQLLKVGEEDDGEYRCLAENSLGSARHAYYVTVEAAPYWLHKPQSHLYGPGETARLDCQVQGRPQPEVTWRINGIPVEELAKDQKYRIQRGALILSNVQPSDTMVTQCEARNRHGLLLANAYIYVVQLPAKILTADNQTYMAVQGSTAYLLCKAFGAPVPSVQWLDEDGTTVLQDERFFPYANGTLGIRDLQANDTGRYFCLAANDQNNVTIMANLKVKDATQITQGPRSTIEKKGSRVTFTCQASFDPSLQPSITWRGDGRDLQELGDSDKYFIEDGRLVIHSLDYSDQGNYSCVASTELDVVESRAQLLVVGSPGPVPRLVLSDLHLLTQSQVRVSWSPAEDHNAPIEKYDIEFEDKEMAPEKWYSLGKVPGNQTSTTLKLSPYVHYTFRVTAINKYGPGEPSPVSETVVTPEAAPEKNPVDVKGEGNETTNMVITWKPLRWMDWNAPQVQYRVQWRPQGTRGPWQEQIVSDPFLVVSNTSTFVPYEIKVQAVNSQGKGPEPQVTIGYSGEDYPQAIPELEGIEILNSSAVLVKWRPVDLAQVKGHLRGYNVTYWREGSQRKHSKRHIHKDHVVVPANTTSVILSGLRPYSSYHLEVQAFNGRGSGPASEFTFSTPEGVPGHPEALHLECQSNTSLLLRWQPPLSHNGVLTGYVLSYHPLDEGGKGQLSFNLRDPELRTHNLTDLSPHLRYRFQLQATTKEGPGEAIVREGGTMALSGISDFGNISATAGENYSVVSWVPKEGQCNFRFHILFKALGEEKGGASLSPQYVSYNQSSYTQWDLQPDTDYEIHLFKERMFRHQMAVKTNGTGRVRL
T2 sequence (P11627 20-1123): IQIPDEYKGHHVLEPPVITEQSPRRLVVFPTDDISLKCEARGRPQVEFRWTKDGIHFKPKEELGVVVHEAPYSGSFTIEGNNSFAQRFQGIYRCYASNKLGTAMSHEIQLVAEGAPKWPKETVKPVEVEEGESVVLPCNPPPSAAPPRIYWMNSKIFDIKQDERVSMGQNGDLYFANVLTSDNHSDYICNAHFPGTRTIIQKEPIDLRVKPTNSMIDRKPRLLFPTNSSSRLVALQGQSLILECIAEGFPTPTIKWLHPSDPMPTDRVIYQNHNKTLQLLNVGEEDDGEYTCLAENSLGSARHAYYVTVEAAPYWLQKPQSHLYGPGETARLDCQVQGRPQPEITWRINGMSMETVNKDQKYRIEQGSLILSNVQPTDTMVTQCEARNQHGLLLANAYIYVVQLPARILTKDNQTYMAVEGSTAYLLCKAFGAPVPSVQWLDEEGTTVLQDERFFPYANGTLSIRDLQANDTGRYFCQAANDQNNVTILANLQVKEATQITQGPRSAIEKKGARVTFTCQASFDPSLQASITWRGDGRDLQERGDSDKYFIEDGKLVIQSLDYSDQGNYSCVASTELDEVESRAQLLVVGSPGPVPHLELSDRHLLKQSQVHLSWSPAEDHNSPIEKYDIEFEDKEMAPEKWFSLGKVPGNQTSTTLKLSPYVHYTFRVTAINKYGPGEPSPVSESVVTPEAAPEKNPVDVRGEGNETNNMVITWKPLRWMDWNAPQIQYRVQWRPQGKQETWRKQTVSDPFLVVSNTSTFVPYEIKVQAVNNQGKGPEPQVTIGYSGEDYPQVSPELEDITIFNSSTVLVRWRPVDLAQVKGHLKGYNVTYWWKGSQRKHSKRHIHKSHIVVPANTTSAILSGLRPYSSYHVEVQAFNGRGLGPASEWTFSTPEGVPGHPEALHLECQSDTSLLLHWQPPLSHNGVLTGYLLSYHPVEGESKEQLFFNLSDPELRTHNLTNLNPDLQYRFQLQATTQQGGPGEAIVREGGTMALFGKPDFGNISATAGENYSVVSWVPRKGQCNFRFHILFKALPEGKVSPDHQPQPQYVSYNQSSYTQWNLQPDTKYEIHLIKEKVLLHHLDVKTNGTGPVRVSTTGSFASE

B1: Ab417 antibody (antibody, V domains shown)
VH: EVQLVESGGGVVQPGRSLRLSCAASGFTFSRFGMHWVRQAPGKGLEWVAFISNDGSNKYYADSVKGRFTISRDNSKNTLYLQMNSLRPEDTAVYYCARGRAYGSGSLFDPWGQGTLVTVSS
VL: DIQLTQSPSSLSASVGDRVTITCRASRTISIYVNWYRQRPGKAPESLIYAASNLHSGVPSRFSGSGSGTDFTLTISSLQPEDFATYYCQQSIGRGVVTFGQGTKLEIK
notes: Whole IgG expressed from pdCMV-dhfrC-Ab417; also called IgG form of Ab4M-18 (codon-optimised)
For orientation: Kd means the free concentration of one partner at which half of the binding sites on the other are occupied at equilibrium, for simple one-to-one binding. Read a high Kd as a looser complex. In general, koff refers to a measure of how fast the partners let go of each other. The low end stands for a long-lived complex, the high end for a short-lived complex. By kon is commonly meant the rate constant with which the complex forms. With B1, the Kd worked out at 0.239 nM in test [1]; 0.2 nM in test [3]; 1.2 nM in [4]; 0.18 nM in test [5]; 0.1 nM in test [6]; 0.21 nM in test [7]. The Kd in test [8] was 0.108 nM; in [9], 0.0348 nM. Further, the koff amounted to 4.51e-05 s⁻¹ in test [1], 2.33e-05 s⁻¹ in [5], 2.64e-05 s⁻¹ in test [8] and 8.1e-06 s⁻¹ in test [9]. Besides, the kon was 189000 M⁻¹ s⁻¹ in test [1], 127000 M⁻¹ s⁻¹ in [5], 244000 M⁻¹ s⁻¹ in test [8] and 233000 M⁻¹ s⁻¹ in [9]. Besides, the “fold higher affinity than Ab4” value in [2] was roughly 92 fold; in test [7], roughly 8 fold. Moreover, the “fold higher affinity than Ab4M” value is roughly 2.4 fold in test [2] and roughly 2 fold in test [10].
